BA1 = not defined here
Legend:
protein kinase A [1] = target: T1, protein kinase A (Bos taurus, UniProt P00517); experiment: Incubation of various modified surfaces (glass, cellulose, polypropylene) with protein kinase A (FIG. 2, Example 30); assay type: biochemical; conditions: protein kinase A 2 U/mL, 30 minutes at 25° C.
T1 construct: purchased Sigma P26452 as printed
Protocol: FIG. 2. The peptide Leu-Arg-Arg-Ala-Ser-Leu-Gly-NH2 and the control peptide […], each modified at the N-terminus with the dipeptide cysteinyl-β-alanine, were coupled to a maleinimido-functionalised surface by a Michael addition (Example 1; maleinimidobutyryl-β-alanine-functionalised cellulose as well as maleinimidobutyryl-β-alanine-functionalised, modified polypropylene membranes). The surfaces thus modified were first pre-incubated for 10 minutes using 10 mL of 100 μM ATP solution in 50 mM of sodium phosphate buffer pH 7.5. […] (Example 30). The phosphorylation of the corresponding peptides was detected using a FUJIFILM PhosphorImager. The signal intensity of the respective spot is given below the figures. […] In the case of the modified glass surfaces, however, the signal for the substrate amino acid sequence is a factor of 4-5 larger than the signal for the corresponding control amino acid sequence. […]
After drying the glass surface the quantity of radioactive phosphate incorporated in the glass-surface-bound peptides was determined using a PhosphorImager system (FLA-3000, FUJIFILM) (see FIG. 2).

protein kinase A [2] = target: T1, protein kinase A; experiment: Incubation of modified glass surface with different concentrations of protein kinase A (FIG. 4, Example 25); assay type: biochemical; conditions: protein kinase A 1 U/mL or 10 U/mL, 30 min at 25° C.
Protocol: FIG. 3. The peptide Leu-Arg-Arg-Ala-Ser-Leu-Gly-NH2, modified at the N-terminus with the dipeptide cysteinyl-β-alanine, was coupled to maleinimido-functionalised surfaces by a Michael addition (maleinimido-functionalised glass surface, Sigma, Silane-Prep™, S4651; as well as maleinimidobutyryl-β-alanine-functionalised, modified polypropylene membranes). The modified glass surfaces were first pre-incubated for 10 minutes using 20 mL of 100 μM ATP solution in 50 mM of sodium phosphate buffer pH 7.5. […] (Example 31). The phosphorylation of the corresponding peptides was detected using a FUJIFILM PhosphorImager. The signal intensity of the respective spot is given below the figures. […] FIG. 4. […] After incubation for 30 min at 25° C. the phosphorylation of the corresponding peptides was detected using a FUJIFILM PhosphorImager. […] After incubation for 30 min at 25° C. the phosphorylation of the corresponding peptides was detected using a FUJIFILM PhosphorImager. […]
After drying the glass surface the quantity of radioactive phosphate incorporated in the glass-surface-bound peptides was determined using a PhosphorImager system (FLA-3000, FUJIFILM) (see FIG. 4).

Cys-BA1-Leu-Arg-Arg-Ala-Ser-Leu-Gly-NH2 ({Cys-BA1}-LRRASLG-NH2; reading uncertain; also: printed as Cys-BA1-Leu-Arg-Arg-Ala-Ser-Leu-Gly-NH2) [compound 85]
kinase-mediated phosphorylation signal on porous surfaces (protein kinase A [1]; modified cellulose or polypropylene surfaces): only non-specific binding of ATP or kinase to the peptides is measured
signal for the substrate amino acid sequence larger than the signal for the corresponding control amino acid sequence (protein kinase A [1]; modified glass surfaces): 4-5 factor
signal intensity for the purified amino acid sequence higher than that for the corresponding control amino acid sequence (protein kinase A [2]): approximately 300 times
signal intensity for the purified amino acid sequence higher than that for the synthesis product (protein kinase A [2]): 500%

Reference: patent US8029979B2, “Method for determining the substrate specificity of an enzyme” (JPT Peptide Technologies GmbH, priority 2001, dated 2011)
